Source: article PMC7993993

Biological target: T1, His6-PomZ (M. xanthus) (UniProt Q1DEM0)
T1 sequence: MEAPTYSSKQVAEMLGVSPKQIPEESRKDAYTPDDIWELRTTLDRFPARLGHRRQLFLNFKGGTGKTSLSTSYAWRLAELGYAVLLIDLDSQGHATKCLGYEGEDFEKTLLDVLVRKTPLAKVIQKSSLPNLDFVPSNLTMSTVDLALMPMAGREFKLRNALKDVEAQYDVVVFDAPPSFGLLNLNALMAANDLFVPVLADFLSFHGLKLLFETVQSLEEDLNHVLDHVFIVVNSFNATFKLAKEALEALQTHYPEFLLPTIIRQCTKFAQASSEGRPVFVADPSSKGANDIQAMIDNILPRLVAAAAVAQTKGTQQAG

- His6-PomZ ATPase activity (NADH-coupled assay, 1 mM ATP, 32°C) with DNA, PomX^NPEP peptide up to 15 µM, 4 µM His6-PomZ: 27 ATP hr^−1
Binder: MKKAFEQNVSRAKPRLRLGALT [PomX^NPEP peptide]
